Data from publication PMC8786784.
Where “and” joins values, the source holds several entries; their conditions need not be identical. Equal entries are not always repeated.

Target: amyloid-β (Aβ) peptide (human (endogenous in brain tissue)) (UniProt P05067)
Assay: 2D-PAGE immunoblot; Aβ immunoprecipitated (4G8 and 6E10) from tris- and FA-soluble fractions of human frontal cortex, eluted in rehydration buffer (8.3 M urea, 0.5% CHAPS, 20 mM DTT), IEF pH 3-10, 4-12% Bis-Tris gel, blot with 6E10; oligomer size assigned from the band's mass

## amyloid-β (Aβ) peptide (from UniProt P05067 672-713) (peptide; other documents disagree on this pair)
  stoichiometry N: 5 and 6
